Data: the DeepSol protein solubility set

assay: soluble on expression in E. coli; label from the status in PepcDB or PDB records

Soluble on expression in E. coli, not soluble:
MGSDKIHHHHHHESDLEQVTYSSENAIPSTLSSLNDNYILESKNASQEAFTLTWSHPDLGYQASVINSLEMDVKDKNFANKVILASSKTDVSHTITVSDLNSKIMALLKVYEMETAPIGIEFRISSSISAAADTLYSNIVSTTITPYEGEPEYPAITLRGSYNGWDFTKSQKVYSVNSDNIYAAMVYFDGKAADGWKFCGTEDWSTDNWGAPESMTPEQSPVTLVSGNGGDIKAYSKNSYYLEFNNTTGELKVSKPHNSWGIVGDHNSWGSGDTMMTLETETDENNKFQYYLKATLDMSAGNKWKIRPEEKWEDDIAPGAVEGEFEDAGDGNFKVSEAGNYTIKWYFNKVTPKIIVVKNK
MGSDKIHHHHHHFEDLKPVIADSTKVTQAHTYKDINKLDIDVKDVNVEFREGKNYSVRYEGAKSSSPTVKKSGNQLQIKGRLSSHSIRFNGMSMYDDYYRNSDRNKMIITLPKDSKLDELNLKLSDSLLSQVNMTGIEADRVKASIHDTKLDLRDANFGNVELSAGDSDISMTNTVLSNGKLDLNDTDVRLDGGSLMQVAMNITEGDVDYNNLSIQGGNLRNNDGDIKMSNTQIQGGYKIDDTDGDILVSRVTVDGYRVQSNDGDVRLFEQTTSNGNVLEKNSNSDNVLDIISNDGDITVN
MGSDKIHHHHHHGDIYNGTTMGVTFATGTQSVSFPSTGYEGFDVEVLRAKSSEATTINLSATLVVGDKEQELPASITVPSSVSFAAGEFKTNIHVTVGDITPGQNYKVKISLPEEMVTIDQTSDKVITVYRDYTFSSLGTGTFKSAAMAEEGEDFTTWEVEVQKADQISWYKAMNLYEKGYNIVFKVNEANEVTVESQPAWKHASYGEVFVSGKGALEDGVITVKLSHDVPNVGGFGEFKEILYLPAK
MGSDKIHHHHHHGEYNKLLKSTDYEYKYEAAKNYFAKGQYNRSATLLNELITILKGTDKAEESLYMLGMSYYNQKDYQTAAQTFITYFNTYPRGTFTELARFHAGKSLFLDTPEPRLDQSSTYQAIQQLQMFMEYFPNSTKKQEAQDMIFALQDKLVLKELYSAKLYYNLGNYLGNNYESCVITAQNALKDYPYTDYREELSILILRARHEMAIYSVEDKKMDRYRETIDEYYAFKNEFPESKYLKEAEKIFNESQKVIKD
MGSDKIHHHHHHGREEKTVYDFPLEQSLKSDKEVSLNKELLAPYLMCSYDSTLCLIDWTANPMVHVYNMNTGKEMVAFGNKGMGPDDFLSISQMYVDMGKRSLLLYDQSLQTISSFQIDSLAQGSLSKIDCVSAPKLGMNRVYAYSDSIFYGSGTFESGLIAKCNQKEILNQYLPFPHTEQAVNRDVNYLLFQGDLIMKPDKKRFAYLAYECDLLSIQKVVNDTCLESVVHLNTYTPVFENQSTNEVSSVNVSTDSPKGFLRGVATENYVYALYSGQIGKNKAIANEVYVFDWEGRAVKKVILDRWGICISVDSNDERLCLMTKETDGGEERYHYYCYQLN
MGSDKIHHHHHHHKKTFDYIFNKTEAITLEQSKLTLSKDITVLSFSDSSMVDRNSSIIKVDSGWIVYSKNSESSILSFTSDGQFSGYIGHRGNGPGEYTSVYDVVVNQKSKVLEVLSDGGIFCYTFGGDFLDKKEVTYPAFSFAIDDRQNYWFYVGNNTTYGDAKMICTDENIANVAYYLHQKSNMLPMVENNFGRNGEWLTFHESLNHDLYTIENGKLDLSYAMDFPNYKLPKKLHELSGMEVIEELQRSNYASIINYLENHDYIFLNVLLNNEGERIPEVYYWIISKNLQEEVIIKIDGGISAESYLFNTQYLSNDNKLYCLGYIWENKDVESFEENLNPSVVALEFNELFSKVR
MGSDKIHHHHHHHPCARLSVRMSSTGIDRKGVLANRVAVVTGSTSGIGFAIARRLARDGAHVVISSRKQQNVDRAMAKLQGEGLSVAGIVCHVGKAEDREQLVAKALEHCGGVDFLVCSAGVNPLVGSTLGTSEQIWDKILSVNVKSPALLLSQLLPYMENRRGAVILVSSIAAYNPVVALGVYNVSKTALLGLTRTLALELAPKDIRVNCVVPGIIKTDFSKVFHGNESLWKNFKEHHQLQRIGESEDCAGIVSFLCSPDASYVNGENI
MGSDKIHHHHHHKNTDLVAEDSICFPIDEHTYYASKSIFQFEENGHEYLSFLDAEYSQKINIYDIKNQKLIKTILLQKEGPNGMNVLSGCHPLNLNHFIITSWNGTFSLVNDKGEIEKKFDFWEKGVNFQEFDHISFSSYSYKPAIIKDSILYFSQSFLKHPRKKSDWNKIPMFAFANLNTGKTGWSELRYPLIFNKDEDFKNVKLYDPEICYTYTGKDVVISLGQYDSIMVSSDFKHKISYNAKSRYLAHAYPHLQDGQIDLFKNIQIQGKLPHYSHLMYDKYRKVFYRFALMPDDNIKPFSNNPHQSFSIIILNKDYEIIGETKFPGNTYTHHLCFVGKKGLYISENNENNPQFDENKLVFRCFTLQDRKK
MGSDKIHHHHHHKQEPISKSGVPVINLSEDVSTVPSLLLSEAAEKLEIVPLEMTDESVLSDITEMQVTDHNIWIDHGREFYIYRFSRTGKFLNKIGSIGQGPGEYTTYSTFLVDEDKKEVYIIANTNGVLAYDFEGNFKRKIIDIQMILQLFSSPYDQYILNNQKFFATQNFGLYRPIDKDSLWSFVSLGDDFQKKKYFKNPAHVGREEQIIANRANMDRMVNYWREYLTSMDTYNAQLTLKYPDTDTIYCYDDATNQLSPQYAIFTDEEKGDYEATHLWFKDRKAFDYFSIFSYYPTKDFIYLVGSKGEEVYTYCYNKKDGSVRLQKRQSTITERDVPWFSFPLRQMKRDFVLDNDLGGGDFTVDSRSSGKYWIDILEPGGDENWIDIDQIKSSTVIDESKKKELIRVLESATEDSNPILMIATLK
MGSDKIHHHHHHKTRTVFVCQQCGAQQSRWMGKCPECGAWDSLVEQIVTPARGTGGQRAATVGQNQPIRLRDVPLTDFQRLPVYAEEFARVLGGGLVPGSVVLIGGDPGVGKSTLLGQVAAHFAASVGPALYVSAEESAQQIRLRAERLGLTADDLFLLAETSLDLIIEHIRHLRPRLVIVDSIQTVYLPELTSAAGSVSQVREGALRLMQLAKETAIPIVLVGHVTKEGAIAGPRVLEHIVDVVLYLEGDRFHQFRLLRGGKNRFGSTNEVGVFEMTGDGLREVRNPSQVFLAERNTQSPGSTVTVTLEGTRPLLVEVQALTSHTGNAQPRRTTNGFDLNRLLMLTAVLSKRVGLPLFNQDLYVNIVGGLRIGEPAADLAVALAIASSYRNQRIASRSGLPW
MGSDKIHHHHHHKTTTAVQLADTFAFMRQKKVLVLDLDPQTNATLALVGEERWEQADERGQTLAHLFLDLLNGTRNFNPERAIVRGASNLNTIPPEVFDQLPESAQYGRVDVLPSSIRLIDVQDRMQDIANRTNYSLSPMAVVQKYIGPLFGRYDYVLIDCPPNLGFITQNGLEVSDHYLIPTIPDRMSTYGIPQIAGKIDELRRDRDLKIRCLGVVVTKFQSNSSQHKQGLEHLPEYLRSAFAYTNEDTPPILNTVMPQTNASAEAMLFERDVRNYPVKYGSGAVAGQAAYKYGLDLAAEVQALLGDEDEA
MGSDKIHHHHHHLKQFRRNYSDPNRGPTGKGVAKYQALKHTCQVCPSKMKCCPKADARKITREEHEDARQVARKIAETKQYVISMRLKKKVEMLFAHLKRILGLGRLRLRDPSRDHGYAMTLPGTACSASDEFLLAATAQNLRKLAKTFPAPQQTRKA
MGSDKIHHHHHHLLGDDPFLVINGDVFIDTLPVMPELKSINPDNGCLAHLWLVENPSQHPNGDFGFVSQEGVTTAELSQGPLSADLKLNFTFSGIGLYHPQLFDDIPEGPVPLGPLLREKMALGQVQGQLHRSFWCDVGTLERLAQLETRLELAARR
MGSDKIHHHHHHLPTSVSPISYQLTVKTYLPGYGYTADKNNLTFEGQVLIELNITKSIKKVSLNSKDLNYTEEFIKKSSILVNGKSIAFTLDDKQSTHEKIFFNLDETVEPTTSATLKVAFGAPLRTDMSGLYQTTYTNSKGESKMAAVTQMEPVYARRMVPCFDEPAYKATWTVTVIHPNKTVAVSNGIEDKVEDGQPGFIISTFKPTPRMSSYLLAIFISEFEYNEATTKSGVRFRVWSRPEEKNSTMYAVEAGVKCLEYYEKYYNISFPLPKQDMVALPDFSAGAMENWGLITYRESALLYDPRIYSGSQKRRVAVVIAHELAHQWFGNLVTLKWWNDLWLNEGFATLVEYLGTDEISDGNMRMREWFTMDALWSALAADSVASTHPLTFKIDKAMEVLDSFDSVTYDKG
